We go through five sequences from the supplement of paper PMC5998384.

For data set [1], the system named is HeLa Kyoto. The experiment in a line: thermal stability score vs G1/S (z-score of summed log2 fold changes over temperatures); higher = more thermally stable than in G1/S.
Data set [2] concerns HeLa Kyoto. In words: melting temperature (median over replicates), in situ; higher = more thermally stable.
The test system of data set [3] is HeLa Kyoto. In words: solubility change mitosis vs G1/S (difference of NP-40 vs SDS log2 ratios) (log2 ratio difference); higher = more soluble in mitosis.
The test system of data set [4] is HeLa Kyoto. The experiment in a line: solubility in G1/S (NP-40 vs SDS abundance) (log2 ratio); higher = more soluble. The conditions noted are these: cell cycle stage: G1/S.
Where [5] appears, read: cell cycle stage: early G1 (4.5 h after nocodazole release).
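Wherever melting temperature (median over replicates), in situ is given: HeLa Kyoto cells synchronized by double thymidine or nocodazole block, proteins quantified by TMT10plex mass spectrometry, three independent biological replicates.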
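Wherever solubility change mitosis vs G1/S (difference of NP-40 vs SDS log2 ratios) is given: synchronized HeLa Kyoto cells (double thymidine block for G1/S, nocodazole release for mitosis), protein amounts in NP-40 versus SDS lysates quantified by mass spectrometry, three biological replicates.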
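Wherever solubility in G1/S (NP-40 vs SDS abundance) is given: HeLa Kyoto cells arrested at G1/S by double thymidine block, proteins quantified by TMT10plex mass spectrometry in mild NP-40 versus SDS extracts, three biological replicates.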
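Wherever thermal stability score vs G1/S (z-score of summed log2 fold changes over temperatures) is given: synchronized HeLa Kyoto cells, proteins quantified by TMT10plex mass spectrometry, three biological replicates, mitosis taken 0.5 h after nocodazole release, G1/S directly after double thymidine block.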

In the case of “MAFVPVIPESYSHVLAEFESLDPLLSALRLDSSRLKCTSIAVSRKWLALGSSGGGLHLIQKEGWKHRLFLSHREGAISQVACCLHDDDYVAVATSQGLVVVWELNQERRGKPEQMYVSSEHKGRRVTALCWDTAILRVFVGDHAGKVSAIKLNTSKQAKAAAAFVMFPVQTITTVDSCVVQLDYLDGRLLISSLTRSFLCDTEREKFWKIGNKERDGEYGACFFPGRCSGGQQPLIYCARPGSRMWEVNFDGEVISTHQFKKLLSLPPLPVITLRSEPQYDHTAGSSQSLSFPKLLHLSEHCVLTWTERGIYIFIPQNVQVLLWSEVKDIQDVAVCRNELFCLHLNGKVSHLSLISVERCVERLLRRGLWNLAARTCCLFQNSVIASRARKTLTADKLEHLKSQLDHGTYNDLISQLEELILKFEPLDSACSSRRSSISSHESFSILDSGIYRIISSRRGSQSDEDSCSLHSQTLSEDERFKEFTSQQEEDLPDQCCGSHGNEDNVSHAPVMFETDKNETFLPFGIPLPFRSPSPLVSLQAVKESVSSFVRKTTEKIGTLHTSPDLKVRPELRGDEQSCEEDVSSDTCPKEEDTEEEKEVTSPPPEEDRFQELKVATAEAMTKLQDPLVLFESESLRMVLQEWLSHLEKTFAMKDFSGVSDTDNSSMKLNQDVLLVNESKKGILDEDNEKEKRDSLGNEESVDKTACECVRSPRESLDDLFQICSPCAIASGLRNDLAELTTLCLELNVLNSKIKSTSGHVDHTLQQYSPEILACQFLKKYFFLLNLKRAKESIKLSYSNSPSVWDTFIEGLKEMASSNPVYMEMEKGDLPTRLKLLDDEVPFDSPLLVVYATRLYEKFGESALRSLIKFFPSILPSDIIQLCHHHPAEFLAYLDSLVKSRPEDQRSSFLESLLQPESLRLDWLLLAVSLDAPPSTSTMDDEGYPRPHSHLLSWGYSQLILHLIKLPADFITKEKMTDICRSCGFWPGYLILCLELERRREAFTNIVYLNDMSLMEGDNGWIPETVEEWKLLLHLIQSKSTRPAPQESLNGSLSDGPSPINVENVALLLAKAMGPDRAWSLLQECGLALELSEKFTRTCDILRIAEKRQRALIQSMLEKCDRFLWSQQA [HPS5]”, the values for the thermal stability score in the data set with HeLa Kyoto [1] (setting [5]) and with HeLa Kyoto [1] (cell cycle stage: mitosis) were 1.53 and 1.55, respectively. Moreover, the results for the melting temperature with HeLa Kyoto [2] (cell cycle stage: G1/S) and in the data set with HeLa Kyoto [2] (cell cycle stage: mitosis) were 48.6 °C and 49.5 °C, respectively. The “solubility change mitosis (log2)” value with HeLa Kyoto [3] is -0.108. Further, in the data set with HeLa Kyoto [4], the “solubility in G1/S (log2)” value is -0.142.
As to “MAGAGPAPGLPGAGGPVVPGPGAGIPGKSGEERLKEMEAEMALFEQEVLGAPVPGIPTAVPAVPTVPTVPTVEAMQVPAAPVIRPIIATNTYQQVQQTLEARAAAAATVVPPMVGGPPFVGPVGFGPGDRSHLDSPEAREAMFLRRAAVAPQRAPILRPAFVPHVLQRADSALSSAAAGPRPMALRPPHQALVGPPLPGPPGPPMMLPPMARAPGPPLGSMAALRPPLEEPAAPRELGLGLGLGLKEKEEAVVAAAAGLEEASAAVAVGAGGAPAGPAVIGPSLPLALAMPLPEPEPLPLPLEVVRGLLPPLRIPELLSLRPRPRPPRPEPPPGLMALEVPEPLGEDKKKGKPEKLKRCIRTAAGSSWEDPSLLEWDADDFRIFCGDLGNEVNDDILARAFSRFPSFLKAKVIRDKRTGKTKGYGFVSFKDPSDYVRAMREMNGKYVGSRPIKLRKSMWKDRNLDVVRKKQKEKKKLGLR [RBM42]”, the thermal stability score in the data set on HeLa Kyoto [1] (setting [5]) is -2.37; in the data set with HeLa Kyoto [1] (cell cycle stage: mitosis), -2.6. For the same sequence, the melting temperature in the data set with HeLa Kyoto [2] (cell cycle stage: G1/S) was determined as 51.6 °C; in the data set on HeLa Kyoto [2] (cell cycle stage: mitosis), 50.1 °C. In addition, the “solubility change mitosis (log2)” value in the data set with HeLa Kyoto [3] was 0.019. The “solubility in G1/S (log2)” value in the data set with HeLa Kyoto [4] worked out at 0.0912.
For “MAGAIIENMSTKKLCIVGGILLVFQIIAFLVGGLIAPGPTTAVSYMSVKCVDARKNHHKTKWFVPWGPNHCDKIRDIEEAIPREIEANDIVFSVHIPLPHMEMSPWFQFMLFILQLDIAFKLNNQIRENAEVSMDVSLAYRDDAFAEWTEMAHERVPRKLKCTFTSPKTPEHEGRYYECDVLPFMEIGSVAHKFYLLNIRLPVNEKKKINVGIGEIKDIRLVGIHQNGGFTKVWFAMKTFLTPSIFIIMVWYWRRITMMSRPPVLLEKVIFALGISMTFINIPVEWFSIGFDWTWMLLFGDIRQGIFYAMLLSFWIIFCGEHMMDQHERNHIAGYWKQVGPIAVGSFCLFIFDMCERGVQLTNPFYSIWTTDIGTELAMAFIIVAGICLCLYFLFLCFMVFQVFRNISGKQSSLPAMSKVRRLHYEGLIFRFKFLMLITLACAAMTVIFFIVSQVTEGHWKWGGVTVQVNSAFFTGIYGMWNLYVFALMFLYAPSHKNYGEDQSNGDLGVHSGEELQLTTTITHVDGPTEIYKLTRKEAQE [WLS]”, the thermal stability score with HeLa Kyoto [1] (setting [5]) was found to be 0.834; in the data set on HeLa Kyoto [1] (cell cycle stage: mitosis), 2.64. Moreover, the melting temperature in the data set with HeLa Kyoto [2] (cell cycle stage: G1/S) and in the data set on HeLa Kyoto [2] (cell cycle stage: mitosis) was 54.2 °C throughout. Also, the “solubility change mitosis (log2)” value with HeLa Kyoto [3] is -0.236. For the same sequence, in the data set with HeLa Kyoto [4], the “solubility in G1/S (log2)” value was -0.178.
For the sequence “MAGDSEQTLQNHQQPNGGEPFLIGVSGGTASGKSSVCAKIVQLLGQNEVDYRQKQVVILSQDSFYRVLTSEQKAKALKGQFNFDHPDAFDNELILKTLKEITEGKTVQIPVYDFVSHSRKEETVTVYPADVVLFEGILAFYSQEVRDLFQMKLFVDTDADTRLSRRVLRDISERGRDLEQILSQYITFVKPAFEEFCLPTKKYADVIIPRGADNLVAINLIVQHIQDILNGGPSKRQTNGCLNGYTPSRKRQASESSSRPH [UCK2]”, the thermal stability score was 0.367 in the data set with HeLa Kyoto [1] (setting [5]) and -1.36 in the data set on HeLa Kyoto [1] (cell cycle stage: mitosis). Besides, the melting temperature came out at 52.2 °C in the data set with HeLa Kyoto [2] (cell cycle stage: G1/S) and 52.9 °C in the data set with HeLa Kyoto [2] (cell cycle stage: mitosis). For the same sequence, in the data set on HeLa Kyoto [3], the “solubility change mitosis (log2)” value turned out to be 0.265. Further, the “solubility in G1/S (log2)” value in the data set on HeLa Kyoto [4] is 0.28.
Regarding “MAGEGDQQDAAHNMGNHLPLLPAESEEEDEMEVEDQDSKEAKKPNIINFDTSLPTSHTYLGADMEEFHGRTLHDDDSCQVIPVLPQVMMILIPGQTLPLQLFHPQEVSMVRNLIQKDRTFAVLAYSNVQEREAQFGTTAEIYAYREEQDFGIEIVKVKAIGRQRFKVLELRTQSDGIQQAKVQILPECVLPSTMSAVQLESLNKCQIFPSKPVSREDQCSYKWWQKYQKRKFHCANLTSWPRWLYSLYDAETLMDRIKKQLREWDENLKDDSLPSNPIDFSYRVAACLPIDDVLRIQLLKIGSAIQRLRCELDIMNKCTSLCCKQCQETEITTKNEIFSLSLCGPMAAYVNPHGYVHETLTVYKACNLNLIGRPSTEHSWFPGYAWTVAQCKICASHIGWKFTATKKDMSPQKFWGLTRSALLPTIPDTEDEISPDKVILCL [CRBN]”, the results for the thermal stability score in the data set on HeLa Kyoto [1] (setting [5]) and with HeLa Kyoto [1] (cell cycle stage: mitosis) were -0.823 and -2.4, respectively. Also, the melting temperature in the data set on HeLa Kyoto [2] (cell cycle stage: G1/S) was 53.7 °C; in the data set on HeLa Kyoto [2] (cell cycle stage: mitosis), 53.4 °C. Besides, the “solubility change mitosis (log2)” value in the data set with HeLa Kyoto [3] is -0.303. In the data set with HeLa Kyoto [4], the “solubility in G1/S (log2)” value was -0.152.
